17 molecules from paper PMC8318589, “Structure and analysis of nanobody binding to the human ASIC1a ion channel” (eLife, 2021) can be followed below.

Data set [1] deals with T1, human ASIC1a-Flag (human) (UniProt P78348).
T1 sequence: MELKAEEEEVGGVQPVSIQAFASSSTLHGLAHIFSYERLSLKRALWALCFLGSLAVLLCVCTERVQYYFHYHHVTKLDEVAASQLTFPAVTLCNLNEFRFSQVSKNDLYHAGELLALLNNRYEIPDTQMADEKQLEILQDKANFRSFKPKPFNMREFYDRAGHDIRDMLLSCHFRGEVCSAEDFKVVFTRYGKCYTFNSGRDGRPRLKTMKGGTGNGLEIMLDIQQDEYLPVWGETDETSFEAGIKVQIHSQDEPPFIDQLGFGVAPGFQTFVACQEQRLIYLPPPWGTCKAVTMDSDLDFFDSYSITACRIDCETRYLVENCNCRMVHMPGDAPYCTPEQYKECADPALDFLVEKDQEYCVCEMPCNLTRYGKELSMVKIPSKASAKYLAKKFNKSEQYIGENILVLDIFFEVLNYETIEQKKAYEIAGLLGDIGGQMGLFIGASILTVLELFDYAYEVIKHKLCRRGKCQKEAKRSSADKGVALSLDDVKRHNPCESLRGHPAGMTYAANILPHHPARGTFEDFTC

Data set [2] addresses hASIC1a comprising amino acids 12–478 with a Strep Tag II in the N-terminus (human, UniProt P78348-2).
The target of a further data set is T2, human ASIC1a-Flag (Homo sapiens, ASIC1a (528 aa isoform), UniProt P78348-2).
T2 construct: human acid-sensing ion channel 1a (ASIC1a); this molecule is used for them; also called hASIC1a; hASIC1a-Flag; source: HEK293T / HEK-293 cells, transfected (pcDNA3.1), on cells
The experiment in a line: immunostaining of cells or tissue; transfected cells on coverslips incubated with Nb (1 nM, 1 hr, on ice) in the medium, washed, fixed, permeabilized; Nb detected by anti-HA, channel by anti-Flag; confocal microscopy. To be noted: one partner purified.

Data set [3] concerns the molecule itself. Briefly: cryo-EM structure; hASIC1a-Nb.C1 complex in DDM, pH 7.4, 20 mM HEPES, 150 mM NaCl, 5 mM CaCl2, 3.8 mg/mL; C3 symmetry imposed.

Molecule “psalmotoxin-1 (PcTx1) (from UniProt P60514 1-40) (peptide)” displayed a time constant of recovery of pH 6.0-induced currents after 60 s with 10 nM PcTx1, oocytes expressing hASIC1a (two-electrode voltage clamp) in data set [1] of 220 s.

B1: H7 (VHH)
VHH: QLQLVESGGGLVQPGGSLRLSCAASGGTIDYYTIGWFRQAPGKEREGVSCIISKADSTKYADTVEGRFTISSDKAKNTVYLQMNSLQPEDTGVYFCAAYRVLIAGRNPGCLLNPPAEYDYWGQGTQVTVSS
In the case of B1, the binding result in data set [2] is “binds”.

B2: F7 (VHH)
VHH: QVQLVESGGGLVMAGGSLSLSCAASGRLFSTWTMGWFRQAPGKEREFVGAIRRVGDSPSYADSVKGRFTISRDSTKNALYLKMNSLKPEDTAVYYCAAKRFGNEYEYWGQGTQVTVSS
For B2, in data set [2], the binding result is listed as “binds”.

B3: A12-2 (VHH)
VHH: QLQLVESGGGLVMAGGSLSLSCAASGRLFSTWTMGWFRQAPGKEREFVGAIRRVGDSPSYADSVKGRFTISRDSTKNALYLKMNSLKPEDTAVYYCAAKRFGNEYEYWGQGTQVTVSS
With B3, in data set [2], the binding result is recorded as “binds”.

B4: G11 (VHH)
VHH: QLQLVESGGGLVMAGGSLSLSCAASGRTFSTWTMAWFRQAPGKEREFVGAIRRIGDSPSYADSVKGRFTISRDNAKNALYLKMNSLKPEDTAVYYCAAKRFGNEYEYWGQGTQVTVSS
For the molecule B4, in data set [2], the binding result is recorded as “binds”.

B5: Nb D10 (VHH)
VHH: QVQLVESGGGLVQPGGSLRLSCAASGFTFNRATMSWYRQAPGKERELVATIGSFGISTNYTDSVKGRFTISRDNAKNTLYLQMNSLKPEDTAVYYCNARYRSTYPWGQGTQVTVSS
notes: alpaca VHH selected against hASIC1a; source: E. coli WK6, periplasm
Turning to B5, the binding result with human ASIC1a-Flag is “binds”.

B6: Nb H10 (VHH)
VHH: QVQLVESGGGLVQPGGSLRLTCAASGFTFSRATMSWYRQAPGKERELVATIGSFGVSTNYADSVKGRFTISRDNAKNTAYLYMNNLKPEDTAVYYCNAHYRSTYPWGQGTQVTVSS
notes: as for B5
In the case of B6, the binding result with human ASIC1a-Flag was “binds”.

B7: Nb C4 (VHH)
VHH: QVQLVESGGGLVQPGGSLRLSCAASGFTFSRAAMSWYRQAPGKEREMVATIGSFGISTNYSDSVKGRFTISRDNAKNTVYLHMNSLKPEDTAVYYCNARYRSTYPWGQGTQVTVSS
notes: alpaca VHH selected against hASIC1a; The name is read out of the printed "C1-4-5"; also called C4 (printed within "C1-4-5"); source: E. coli WK6, periplasm
With B7, the binding result in the data set with human ASIC1a-Flag is “binds”.

B8: G4 (VHH)
VHH: QLQLVESGGGLVQPGGSLRLTCAASGFALDDYTIGWFRQAPGNEREGVACMHGGGIHIADSLKGRITISRDNAKNTVYLQMNSLKPEDTAVYYCAARLATATRWTCKLSDMDYWGKGTLVTVSS
B8: in data set [2], the binding result is listed as “binds”.

B9: 2B-D4 (VHH)
VHH: QVQLVESGGGLVQAGGSLRLSCAASGIAFSRYTMGWYRQAPGKQRELVADFSREGTTRYADAVKGRFTISRDNAKNTVYLEMNSLKPEDTAVYYCNARRPFLGNLANNWGRGTQVTVSS
As for B9, the binding result in data set [2] is “binds”.

B10: 1A-B1 (VHH)
chain: QLQLVESGGGLVQTGESLRLSCVASGIAFSRYIVGWYRQAPGKERELVASVRRNSGTNYVGDLKGGFFISSKNANNTVYQEMNNLKPADDAVYYCSTARPFLGDLPNNCGYWTQVTVSS
Consider B10, for which the binding result in data set [2] is “binds”.

B11: B11 (VHH)
VHH: QLQLVESGGGLVQPGGSLRLSCAASGLTLDNYAIGWFRQVPGKEREDVSCISTSHGSLHYANSVKGRFTISVDAAENTVYLQMNSLNAEDTAVYFCAARGFDSDCSVYGMDFWGKGTPVTVSS
Take B11: in data set [2], the binding result is “binds”.

B12: G10 (VHH)
VHH: QVQLVESGGGLVQPGGSLRLSCAASGGTLDVYTIGWFRQAPGKEREGLSCLSSSDGSTYYADSVKGRFTISRDNAKNTMYLQMNSLKPEDTAVYYCVAGAWTHVQAMCVTCFGCDWGQGTQVTVVS
As for B12, the binding result in data set [2] is “binds”.

B13: G4-3 (VHH)
VHH: QVQLVESGGGLVQPGGSLRLSCAASGSTLDYYAIGWFRQAPGKEREGVSCISRSGGSTYYADSVKGRFTISRDNAKNTVYLQMNSLKPEDTAVYYCAADRGAVGGIFNSDYDAQNSLPPCSYGMDYWGKGTLVTVSS
As to B13, in data set [2], the binding result was “binds”.

B14: hASIC1a comprising amino acids 12–478 with a Strep Tag II in the N-terminus (domain or fragment, human, UniProt P78348-2 12-478, looked up)
chain: GVQPVSIQAFASSSTLHGLAHIFSYERLSLKRALWALCFLGSLAVLLCVCTERVQYYFHYHHVTKLDEVAASQLTFPAVTLCNLNEFRFSQVSKNDLYHAGELLALLNNRYEIPDTQMADEKQLEILQDKANFRSFKPKPFNMREFYDRAGHDIRDMLLSCHFRGEVCSAEDFKVVFTRYGKCYTFNSGRDGRPRLKTMKGGTGNGLEIMLDIQQDEYLPVWGETDETSFEAGIKVQIHSQDEPPFIDQLGFGVAPGFQTFVACQEQRLIYLPPPWGTCKAVTMDSDLDFFDSYSITACRIDCETRYLVENCNCRMVHMPGDAPYCTPEQYKECADPALDFLVEKDQEYCVCEMPCNLTRYGKELSMVKIPSKASAKYLAKKFNKSEQYIGENILVLDIFFEVLNYETIEQKKAYEIAGLLGDIGGQMGLFIGASILTVLELFDYAYEVIKHKLCRRGKCQKEAKRS
notes: human acid-sensing ion channel 1a (ASIC1a), residues 12-478 (50 a.a. carboxyl terminal deletion); Trimer in the cryo-EM structure; also called human ASIC1a; recombinant hASIC1a protein; source: HEK293F (FreeStyle 293 F) cells, transfected (pcDNA3.1); crude membranes, solubilised in DDM, purified (Strep Tactin XT, SEC); not shown: Strep Tag II, N-terminal, kept
As for B14, in data set [3], the “stoichiometry N” value stood at 3.

B15: E9-3 (VHH)
VHH: QLQLVESGGDLVQPGGSLRLTCAASGFTFSSLTMSWHRQALGKERELVAAIGEATGATYYVESVKGRFIISRDNAKNTVFLQMNSLKPEDTAVYYCKAASSSNDYWGQGTQVTVSS
On to B15, for which, in data set [2], the binding result is recorded as “binds”.

B16: 2B-E6 (VHH)
VHH: QVQLVESGGGLVQPGGSLRLSCAASGRTVSSYVMGWYRQAPGKEREFVASVRWTTGLTYVEDSVKGRFTISRDNTKSTVDLQMNSLKPEDTAIYYCNARPLVMLGPTEAGYWGQGTQVTVSS
For the molecule B16, in data set [2], the binding result was “binds”.

As a reminder, the stoichiometry N is the number of molecules, sites or subunits per partner or assembly.
